Source: the supplement of paper PMC12042874
± gives the uncertainty stated by the source.

Assay: amyloid nucleation score (Sup35N fusion, yeast selection) (log enrichment); library NNK2; higher = more nucleation; inactive = no reads after selection
Method in brief: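 Using DiMSum, nucleation scores were taken as the log enrichment of output over input reads, centred on the mode score of non-aggregating sequences. The input and output reads came from Illumina sequencing of plasmid inserts, with sequences under 100 input reads excluded. The yeast were psi-negative, expressed Sup35N fused to peptides of 20 random codons, were induced with 100 μM copper sulfate for 24 hours, and were grown 7 days at 30°C on medium lacking adenine and uracil.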

| Substance | amyloid nucleation score |
| --- | --- |
| DRGYVTD | 1.14 ± 0.4 |
| DRICRVDIYDVRDQSYTFSG | -0.279 ± 0.29 |
| DRRGQQVLGPACRGCWFWPD | 0.305 ± 1 |
| DRRWHRALQN | 0.137 ± 0.37 |
| DRWMTGMDAVYLHRRGPLFF | 0.13 ± 0.8 |
| DRYSTCSNRKSTRYLFMTFA | 0.151 ± 0.36 |
| DSAGASFNSCCGAE | 0.122 ± 1.1 |
| DSCGLCRYGGEMFRKFKFIS | inactive |
| DSDNIPNHTYMILFGIQFHS | -0.311 ± 0.65 |
| DSFFAEMDNLNSGRTPFKGT | inactive |
| DSISFNPYRMLRDNYLLHVC | 1.9 ± 0.13 |
| DSISNISDPCGFLGQESWVN | 4.83 ± 0.063 |
| DSNRMNVNRTPDGVLGGCGT | 0.468 ± 0.38 |
| DSSLKLGNTETFIDRSMLCN | -0.407 ± 0.4 |
| DSSRRM | -1.43 ± 0.78 |
| DSSYVSVHRFCNFGYLIFCF | 7.734 ± 0.064 |
| DSTFKYYRTYLKERR | -0.357 ± 0.41 |
| DSVSTVVFII | 4.47 ± 0.045 |
| DSWFEQCVVFWLKTNCPQQE | -0.069 ± 0.25 |
| DTDDVNHYSFTPRALSSGFI | inactive |
| DTILWRSSHAEGTEAWHMGF | 1.28 ± 0.38 |
| DTRVSFRFMVTYLIMVYRFL | 0.774 ± 0.22 |

| Substance | amyloid nucleation score |
| --- | --- |
| DTYDSCMSSVMISFR | 0.343 ± 0.51 |
| DVAIRVYYMYMYERYVTRLF | inactive |
| DVFWYDATTRYGGRCRGQIS | 1.11 ± 0.31 |
| DVLLVLHVIWCICYPLGVVS | 0.429 ± 0.4 |
| DVMSSPGVSFITTVAFDVC | 0.382 ± 0.8 |
| DVREFSSDYSQVGVEVLVFL | 0.373 ± 0.42 |
| DVRRLLFLLLGQ | -0.796 ± 0.4 |
| DVSESRSTVDGSDNEGWLTD | 0.299 ± 0.42 |
| DWRLARLSSVRFLNGIDCDF | 0.015 ± 0.56 |
| DWRRWM | 0.422 ± 0.5 |
| DWSVKCGVMERI | -0.295 ± 0.4 |
| DYDGTPGCVEKSTIIFMV | inactive |
| DYFAIRWGQVT | inactive |
| DYGWKLMVKVDWFLNGHQ | 4.39 ± 0.048 |
| DYLVRGQEY | 0.357 ± 0.43 |
| DYLVSMTVNSASLFRYIERR | 5.209 ± 0.029 |
| DYQGGCSILTSEDEPYEVAC | 1.56 ± 0.44 |
| DYSFGMSCLEDIFREHEILG | -0.879 ± 1.1 |
| DYWLMEWMRYVHRLVGNCWY | -0.959 ± 1.1 |
| EACRLYHRVVKAFGEARCSV | 0.518 ± 0.28 |
| EADLYSTAIQLDK | -0.313 ± 0.44 |
| EARILIKLLI | 2.58 ± 0.091 |

| Substance | amyloid nucleation score |
| --- | --- |
| EAYVHGMR | 1.07 ± 0.25 |
| ECVDCESIEMEAVSC | 1.26 ± 0.16 |
| ECYETRTSMEY | -0.102 ± 0.56 |
| EDDVSYNSFSGQASLWKFPK | -0.818 ± 0.56 |
| EDIWEMRSLHLWLSCSGWTD | 2.27 ± 0.15 |
| EDRNSAFAWSSH | 3.54 ± 0.14 |
| EDSPKFKGGPGIYHSVVLVG | 0.394 ± 0.27 |
| EDWNPSTMFVRFWYNSACWY | 0.204 ± 0.6 |
| EFFALMDARVFVSVMLQEVD | -0.268 ± 0.63 |
| EFSSTTSALGKDVRVFNFAI | -1.26 ± 0.62 |
| EFWVLNYVITNLHWQTYSIM | -1.29 ± 1 |
| EGLQFRCLRNSEILVCGYFS | 0.466 ± 0.54 |
| EGSNYYTMVV | inactive |
| EHLGIIAIRCAQIHKFLPEL | 0.539 ± 0.36 |
| EIHYMCELIMQWVYSGLTSR | 0.607 ± 0.35 |
| EIMCLHKNALCFQCSTSGCA | 7.52 ± 0.046 |
| EITFLCSGKSDSDMYVGFAS | 2.08 ± 0.072 |
| EIWRFLQHRGIYYFFWSFEK | inactive |
| EKFYLDLG | -0.006 ± 0.54 |
| EKLWIMLTLICNIVRSPSYK | -0.515 ± 1.1 |
| EKYRGSLMSRLAKMWNCCVT | 1.04 ± 0.27 |
| ELFRDNTGSSVVGNSRSSDA | 0.438 ± 0.17 |

| Substance | amyloid nucleation score |
| --- | --- |
| ELFTLGLEGALEVNELKLKY | 0.782 ± 0.18 |
| ELKVMGYMCPL | 0.801 ± 0.82 |
| ELTGYT | -0.388 ± 0.56 |
| EMVSLCSSRFRRMMGACLGT | 1.39 ± 0.21 |
| EMYKQVRFVVIGIIC | 1.21 ± 0.24 |
| ENCLESWTCI | -1.08 ± 0.78 |
| ENIISERAFS | inactive |
| ENLYGFWYLTRCRMF | -0.096 ± 0.39 |
| ENQPVELSTTRDTRAGMSDT | inactive |
| ENSFLVRKTSH | -0.262 ± 0.36 |
| EPCNTNIK | -0.553 ± 0.29 |
| EPFSNEWWLMGVRPHLICRV | 0 ± 0.37 |
| EPMKSFSHNCLTQIST | -0.557 ± 1.1 |
| ERSVDYSLTL | -0.43 ± 0.45 |
| ERVNKFLWGGFSERLRLMSQ | 0.51 ± 0.65 |
| ERYIRF | 0.187 ± 0.32 |
| ESFAFELTVLHIS | 1.11 ± 0.38 |
| ESGCRHYLCLGATTIVMDS | 6.619 ± 0.049 |
| ESGFGMSSNWKPERNFW | inactive |
